Data from patent US20250034222.

Assay: SEC after Ni-NTA purification, area under monomer and dimer peaks

B1: WT IL-38 (residues 3-152, initiator methionine, C-terminal His6 tag) (protein)
chain: MSLPMARYYIIKYADQKALYTRDGQLLVGDPVADNCCAEKICILPNRGLARTKVPIFLGIQGGSRCLACVETEEGPSLQLEDVNIEELYKGGEEATRFTFFQSSSGSAFRLEAAAWPGWFLCGPAEPQQPVQLTKESEPSARTKFYFEQSW
% monomer upon purification: WT IL-38 forms ˜20% dimer upon purification, ˜80% monomer
